{"source": "patent US20240254260A1", "about": "(ISU ABXIS, published 2024)", "binders": {"B1": {"name": "antibody #9104 (antibody, mouse IgG1, V domains shown)", "VH": "EVQLLESGGGLVQPGGSLRLSCAASGFTFSNYYMSWVRQAPGKGLEWVSGIYYGSGNIYYADSVKGRFTISRDNSKNTLYLQMNSLRAEDTAVYYCARDTPGFDYWGQGTLVTVSS", "VL": "QSVLTQPPSASGTPGQRVTISCTGSSSNIGNNAVNWYQQLPGTAPKLLIYYDSHRPSGVPDRFSGSKSGTSASLAISGLRSEDEADYYCGAWDYSLSAYVFGGGTKLTVLG"}}, "molecular_target": "T1, ASM protein present in the blood plasma of APP/PS1 mice (mouse, UniProt Q04519 45-626, limits assumed)", "T1 sequence": "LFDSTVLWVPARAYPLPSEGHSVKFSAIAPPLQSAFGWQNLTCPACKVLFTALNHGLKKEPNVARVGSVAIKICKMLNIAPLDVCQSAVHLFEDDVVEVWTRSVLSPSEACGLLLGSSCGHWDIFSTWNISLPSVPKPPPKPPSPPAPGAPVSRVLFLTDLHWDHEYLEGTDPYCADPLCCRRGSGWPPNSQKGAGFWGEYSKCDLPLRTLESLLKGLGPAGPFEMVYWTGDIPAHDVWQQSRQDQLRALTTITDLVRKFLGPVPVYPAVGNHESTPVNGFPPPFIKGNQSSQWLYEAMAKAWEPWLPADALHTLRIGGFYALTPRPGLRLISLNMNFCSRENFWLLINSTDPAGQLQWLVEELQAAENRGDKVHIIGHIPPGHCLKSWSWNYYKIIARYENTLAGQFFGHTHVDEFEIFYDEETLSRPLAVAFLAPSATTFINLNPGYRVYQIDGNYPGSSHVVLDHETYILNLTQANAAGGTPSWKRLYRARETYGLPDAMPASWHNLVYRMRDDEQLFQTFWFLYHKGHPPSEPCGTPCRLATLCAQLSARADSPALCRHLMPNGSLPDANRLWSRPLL", "assay": "cell-based or functional assay", "data": [{"binder": "B1", "values": [{"measurement": "activity of the ASM protein in blood plasma of APP/PS1 mice after administration of 50 mg/kg antibody (UPLC), relative to the negative control group", "result": "~64", "unit": "%"}]}]}
